Consider six molecules from doi:10.1101/2025.08.09.669497 (bioRxiv, 2025).

Where two headings read alike, the source gives them in different places. A value given as a limit tells only on which side of the number the result lay.

Test [1] deals with BKPyV VP1 pentameric core (residues 26-297) (BK polyomavirus (BKPyV)) (UniProt P03088). Kind of test: crystal structure.
In test [2] the target is 319C07 (Potravitug), human IgG monoclonal antibody (human). The test is described as follows: BLI. A general note: BLI is a label-free optical method that tracks binding on a fibre tip over time.
The target in test [3] is T1, BKPyV VP1 pentameric core (residues 26-297) (BK polyomavirus, strain ; …, UniProt P03088). The test is described as follows: crystal structure.
The target of test [4] is T1, BKPyV VP1 pentameric core (residues …). The test is described as follows: crystal structure. This is another data set of the same source.
The target in test [5] is BKPyV VP1 pentamer, genotype III-AS (M23122), ALFA-tagged (BK polyomavirus (BKPyV), strain AS, UniProt P14996). Kind of test: BLI.
Test [6] addresses T1, BKPyV VP1 pentameric core (residues …). The test is described as follows: crystal structure. This is another data set of the same source.

For the molecule “BKPyV VP1 pentameric core (residues 26-297) (from UniProt P03088 26-297) (domain or fragment)”, in test [1], the stoichiometry N (usually the number of molecules, sites or subunits per partner or assembly) amounted to 5.

With “BKPyV VP1 single-point mutant K69N in the Dunlop background (from UniProt P03088 1-362) (natural protein)”, in test [2], the Kd (as a rule, a measure of binding affinity in units of concentration) was determined as 4.5 µM and the fold reduction of affinity against the Dunlop background was > 1000 fold.

B1: ORT-VHH17 (VHH)
VHH: EVQLVESGGGLVQAGGSLRLSCAASGRDLSNYDMGWFRQAPGKEREFVATIKWRSGGTNHAESVKGRFTISRDNAKNTVYLQMSSLKPEDTAVYYCAAAPNWLGYSFKVDDYIYWGQGTQVTVSS
In the case of B1, the “stoichiometry N” value in test [3] is 1 nanobody per VP1 monomer.

B2: ORT-VHH16 (VHH)
VHH: EVQLVESGGGLVQAGGSLRLSCAASGRTFDHYAMGWFRQAPGKERELVARISSGGGTTNYADSVKGRFTISRDNAKNTVSLQMNSLKPEDTAVYYCVGEIQYGTRYYWGQGTQVTVSS
On to B2, for which the “stoichiometry N” value in test [4] came to 1 nanobody per VP1 monomer.

B3: 319C07 (Potravitug), human IgG monoclonal antibody (antibody, V domains shown)
VH: QVQLQQWGAGLLKPSETLSLTCAVYRGSFSAYYWTWFRQPPGKGLEWIGEINHRGYTNYNPSLRGRVSISVDTSKKQFSLKLRSVNAADTAVYYCATLRSTSGWHDYFDYWGQGTLVTVSS
VL: EIVLTQSPGTLSLSPGERATLSCRASQSVSSSYLAWYQQTPGQAPRLLIYGASSRATGIPDRFSGSGSGTDFTLTISRLEPEDFVVYFCLQYGSSPLTFGPGTKVDIK
B3: the binding result in test [5] is “binds”.

B4: Potravitug single-chain variable fragment (scFv-319C07) (scFv, V domains shown)
VH: QVQLQQWGAGLLKPSETLSLTCAVYRGSFSAYYWTWFRQPPGKGLEWIGEINHRGYTNYNPSLRGRVSISVDTSKKQFSLKLRSVNAADTAVYYCATLRSTSGWHDYFDYWGQGTLVTVSS
VL: EIVLTQSPGTLSLSPGERATLSCRASQSVSSSYLAWYQQTPGQAPRLLIYGASSRATGIPDRFSGSGSGTDFTLTISRLEPEDFVVYFCLQYGSSPLTFGPGTKVDIK
As to B4, in test [6], the “stoichiometry N” value stood at 3 scFv per VP1 pentamer.
